Measurements: the supplement of paper PMC12764529
± gives the half width of the 95% confidence interval.

Columns and labels:
[1] = folding stability dG unfold (combined trypsin and chymotrypsin); higher = more stable
Summary of the method: (§1)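 Unfolding free energy was derived, per protease or combined, by relating Bayesian-fitted K50 values from sequencing counts to a sequence-predicted unfolded-state K50 and a shared folded-state K50. The underlying digests exposed cysteine-free mini-proteins under 80 residues, in a PA-tagged cDNA display construct, to trypsin and chymotrypsin at 11 threefold-diluted concentrations and to a no-protease condition. A filter kept only designs with AlphaFold2 dimer inter-PAE above 15.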

[2] = folding stability dG unfold from trypsin proteolysis; higher = more stable
Summary of the method: as §1

[3] = folding stability dG unfold from chymotrypsin proteolysis; higher = more stable
Summary of the method: as §1

SAGGSAGGSFKDVPPGLKPLREEENVLFYQLPDGSYLVLVKEGDKIKKIKASKSTSIEEAIKKSAGGSAGGS [r12_605_JUSTAS]
folding stability dG unfold [1]: 1.61 ± 0.16 kcal/mol
folding stability dG unfold [2]: 0.44 ± 0.11 kcal/mol
folding stability dG unfold [3]: 2.09 ± 0.041 kcal/mol

SAGGSAGGSFPLDEIRKFAKKLGNPFIEIEPVKPHVYRIKIYNKKNGKKKEFPIYLDEDGKIMSAGGSAGGS [r12_170_TrROS]
folding stability dG unfold [1]: 1.16 ± 0.13 kcal/mol
folding stability dG unfold [2]: 0.992 ± 0.053 kcal/mol
folding stability dG unfold [3]: 1.27 ± 0.15 kcal/mol

SAGGSAGGSFRIPKGDPNMKIRIIFQWPNGQPMPMEYTVTPDGTFKINIPGMPPNRIESIEIWSAGGSAGGS [r12_477_TrROS]
folding stability dG unfold [1]: 1.95 ± 0.21 kcal/mol
folding stability dG unfold [2]: 1.98 ± 0.17 kcal/mol
folding stability dG unfold [3]: 1.68 ± 0.26 kcal/mol

SAGGSAGGSGGMTPTSRDYVLPNGEKLAVEETFTFPDGSSVTKVLDPKTGTTTTLPASTIASASAGGSAGGS [r12_488_JUSTAS]
folding stability dG unfold [1]: 0.394 ± 0.11 kcal/mol
folding stability dG unfold [2]: 0.451 ± 0.032 kcal/mol
folding stability dG unfold [3]: 0.321 ± 0.13 kcal/mol

SAGGSAGGSGGVIDIPVYGEDGEKFIASAPKEVIEKAIKEGKPIEVYVVDDGKIIKKFTISTGSAGGSAGGS [r12_991_TrMRF]
folding stability dG unfold [1]: 0.0354 ± 0.12 kcal/mol
folding stability dG unfold [2]: -0.0801 ± 0.092 kcal/mol
folding stability dG unfold [3]: -0.0658 ± 0.17 kcal/mol

SAGGSAGGSGKPLLLVRLKIRNKETGEEETVVLEADSLDEALARLPPGAEIVSIEVVRLDLPPSAGGSAGGS [r12_208_TrROS_Hall]
folding stability dG unfold [1]: 5.34 ± 0.13 kcal/mol
folding stability dG unfold [2]: 4.34 ± 0.16 kcal/mol
folding stability dG unfold [3]: 5.38 ± 0.075 kcal/mol

SAGGSAGGSGKVLVLPLPGGTVEEVKEIAKEIKEKYPNAKVTTEVFPTPEGDLVAVVTLENPESAGGSAGGS [r12_425_TrMRF]
folding stability dG unfold [1]: 0.0277 ± 0.22 kcal/mol
folding stability dG unfold [2]: 0.307 ± 0.11 kcal/mol
folding stability dG unfold [3]: -0.0724 ± 0.087 kcal/mol

SAGGSAGGSGLEILEEREAVFPLHGLVVKREVVVRSPDGVPLVFVEVEAHPELLPLVERLFERSAGGSAGGS [r12_457_TrMRF]
folding stability dG unfold [1]: 0.138 ± 0.099 kcal/mol
folding stability dG unfold [2]: 0.212 ± 0.054 kcal/mol
folding stability dG unfold [3]: -0.0155 ± 0.13 kcal/mol

SAGGSAGGSGLPIVVQEDGTLVLRREGDGTAAFDVVPLEEFERLPEEFLESLPASALPDPLPLSAGGSAGGS [r12_793_JUSTAS]
folding stability dG unfold [1]: 0.882 ± 0.1 kcal/mol
folding stability dG unfold [2]: -0.428 ± 0.2 kcal/mol
folding stability dG unfold [3]: 1.41 ± 0.11 kcal/mol

SAGGSAGGSGMKRTATVVERDPATGRVLLEITDGSKTTTRVLEGPPSGRGAASSPEIDSLSLLSAGGSAGGS [r12_421_JUSTAS]
folding stability dG unfold [1]: -0.423 ± 0.098 kcal/mol
folding stability dG unfold [2]: -1.16 ± 0.29 kcal/mol
folding stability dG unfold [3]: -0.169 ± 0.12 kcal/mol

SAGGSAGGSGMTLEEIAERLKEEYNAPEVKVTRDPSKPVYTVTVTLADGSTKTYTIYVPEELGSAGGSAGGS [r12_114_JUSTAS]
folding stability dG unfold [1]: 3.44 ± 0.092 kcal/mol
folding stability dG unfold [2]: 2.63 ± 0.047 kcal/mol
folding stability dG unfold [3]: 3.73 ± 0.051 kcal/mol

SAGGSAGGSGNATVMLMFPIEISITVMEWDNGKPKMKTQEIEIWVMIMIPVPPPPDPGDPEWNSAGGSAGGS [r12_713_TrROS]
folding stability dG unfold [1]: 3.76 ± 0.11 kcal/mol
folding stability dG unfold [2]: 2.84 ± 0.076 kcal/mol
folding stability dG unfold [3]: 4.09 ± 0.071 kcal/mol

SAGGSAGGSGPMDDPVPPRFSVETSVSPVALPPEFVAYVAAHPEEVDAVYTTTVVVLEEGPAGSAGGSAGGS [r12_196_JUSTAS]
folding stability dG unfold [1]: -0.449 ± 0.22 kcal/mol
folding stability dG unfold [2]: -0.559 ± 0.075 kcal/mol
folding stability dG unfold [3]: -0.482 ± 0.79 kcal/mol

SAGGSAGGSGPVLLVRVRPDGTREILDVLPPDEPVENLPAGEFREFRLIPTESLEDALRKALASAGGSAGGS [r12_452_TrMRF]
folding stability dG unfold [1]: -0.00342 ± 0.21 kcal/mol
folding stability dG unfold [2]: -0.44 ± 0.54 kcal/mol
folding stability dG unfold [3]: 0.304 ± 0.37 kcal/mol

SAGGSAGGSGSLEKVFTGENKIITIKYLPDGKVIITLHDPSTPKPIAVIEAKPSEIEEILKKESAGGSAGGS [r20_129_TrMRF]
folding stability dG unfold [1]: 1.76 ± 0.13 kcal/mol
folding stability dG unfold [2]: 1.24 ± 0.12 kcal/mol
folding stability dG unfold [3]: 1.86 ± 0.076 kcal/mol

SAGGSAGGSGSMLPITTVTPTPDGVWKITYELPDGSTRTITVPPDDLSLSGPPSSSGSSAALASAGGSAGGS [r20_194_JUSTAS]
folding stability dG unfold [1]: 0.764 ± 0.15 kcal/mol
folding stability dG unfold [2]: 1.28 ± 0.091 kcal/mol
folding stability dG unfold [3]: 0.041 ± 0.31 kcal/mol

SAGGSAGGSGSMSTPVTEEITLTLTRTTEDGTEVVITIKVKVVKDPTSDVVTVTEVLSETVEPSAGGSAGGS [r12_358_JUSTAS]
folding stability dG unfold [1]: 2.37 ± 0.099 kcal/mol
folding stability dG unfold [2]: 2.18 ± 0.051 kcal/mol
folding stability dG unfold [3]: 2.54 ± 0.039 kcal/mol

SAGGSAGGSGSVEFETDLKDPNIRKAIEEALKEGKKTAVIPFPDGAEGRIVEVEGDKVRVEISSAGGSAGGS [r12_334_TrMRF]
folding stability dG unfold [1]: 0.838 ± 0.12 kcal/mol
folding stability dG unfold [2]: 0.0322 ± 0.15 kcal/mol
folding stability dG unfold [3]: 1.29 ± 0.099 kcal/mol

SAGGSAGGSGTSTKINILLPVKPGETVKLKVEVNLNSKKVLFYVDVKKNPVGNYLSATFTVTGSAGGSAGGS [r12_136_TrMRF]
folding stability dG unfold [1]: 3.85 ± 0.23 kcal/mol
folding stability dG unfold [2]: 2.75 ± 0.3 kcal/mol
folding stability dG unfold [3]: 4.42 ± 0.12 kcal/mol

SAGGSAGGSGVLVRITATHPDGSTEEVLEIEVPNDENDPAKLKAIAEELAKKAGMKNIKIELLSAGGSAGGS [r12_569_JUSTAS]
folding stability dG unfold [1]: 2.31 ± 0.07 kcal/mol
folding stability dG unfold [2]: 1.95 ± 0.047 kcal/mol
folding stability dG unfold [3]: 2.49 ± 0.027 kcal/mol
